In the supplement of paper PMC6757056:
± gives the standard deviation of the averaged measurements.

B1: library; a variant is named by its letters at N, in order (parent)
chain: GCUGUCACCGGUGCUUGGUACGUUAUAUUCAGCCGGUCUGAUGAGUCUNNNNNNAGACGAAACAGC

Columns and labels:
[1] = variants of: B1; assay: FACS-Seq fitted mean relative fluorescence mCherry/BFP without ligand (log10 relative fluorescence); HEK293T overexpressing SLC46A1; higher = higher reporter protein expression; settings: without (6R,S)-folinic acid; ligand present: no
In short: (§1)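 Enriched HEK293T cells carrying, by lentivirus, an mCherry reporter with the ribozyme switch and an EF1α-BFP marker spent 48 h with or without ligand and were sorted into 6 bins by mCherry/BFP. MiSeq sequencing of PCR-amplified bin genomic DNA gave bin counts. Fluorescence was calculated as the fitted normal mean of those counts. Counts were binned on log10(mCherry/BFP), and means were scaled to five spiked-in control ribozymes.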

[2] = variants of: B1; assay: normalized RNA/DNA level without ligand (relative to sTRSVctl = 100) (log10 (% of sTRSVctl)); HEK293T overexpressing SLC46A1; higher = less ribozyme self-cleavage, higher mRNA level; settings: without (6R,S)-folinic acid; ligand present: no
In short: (§2)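 Library plasmids encoding reporter-linked ribozyme switches (mCherry, or eGFP for some folinic acid experiments) were transfected into HEK293T at 4 µg per 6-well well. Ligand, when used, was added 1 h before transfection. Total RNA was extracted with EDTA 72 h later, then reverse-transcribed, amplified, barcoded and sequenced. RNA level was RNA reads over DNA reads, divided by a spiked-in non-cleaving control (or the top 25 sequences), ×100, log10; only sequences with ≥100 DNA reads were kept.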

[3] = variants of: B1; assay: FACS-Seq fitted mean relative fluorescence mCherry/BFP with ligand (log10 relative fluorescence); HEK293T overexpressing SLC46A1; ligand concentration (+) FACS-Seq: 6 mM; higher = higher reporter protein expression; settings: with (6R,S)-folinic acid; ligand present: yes
In short: as §1

[4] = variants of: B1; assay: normalized RNA/DNA level with ligand (relative to sTRSVctl = 100) (log10 (% of sTRSVctl)); HEK293T overexpressing SLC46A1; ligand concentration (+) RNA-Seq: 6 mM; higher = less ribozyme self-cleavage, higher mRNA level; settings: with (6R,S)-folinic acid; ligand present: yes
In short: as §2

| Variant | FACS-Seq fitted mean (log10) [1] | normalized RNA/DNA level without ligand (log10) [2] | FACS-Seq fitted mean (log10) [3] | normalized RNA/DNA level with ligand (log10) [4] |
| --- | --- | --- | --- | --- |
| AAAAUU | 0.432 ± 0.056 | 2.0158 ± 0.0011 | 0.29 ± 0.039 | 2.02 ± 0.031 |
| CGCUUU | -0.0215 ± 0.022 | 2.017 ± 0.0068 | 0.0431 ± 0.039 | 2 ± 0.063 |
| AAUUGG | 0.112 ± 0.046 | 1.93 ± 0.024 | 0.122 ± 0.064 | 2 ± 0.022 |
| AAACAU | 0.298 ± 0.095 | 1.971 ± 0.0055 | 0.199 ± 0.17 | 2.01 ± 0.045 |
| GGAUAA | 0.686 ± 0.051 | 1.9974 ± 0.00055 | 0.655 ± 0.074 | 2.03 ± 0.026 |
| AAGGUC | 0.209 ± 0.03 | 2.03 ± 0.013 | 0.178 ± 0.099 | 2 ± 0.027 |
| AGCGCA | 0.49 ± 0.034 | 2.01 ± 0.021 | 0.548 ± 0.31 | 2.04 ± 0.029 |
| AGAGCU | 0.596 ± 0.05 | 2.019 ± 0.006 | 0.275 ± 0.32 | 2.01 ± 0.029 |
| UGGGCG | 0.142 ± 0.034 | 1.787 ± 0.014 | 0.637 ± 0.097 | 2.009 ± 0.0047 |
| AACCAU | 0.386 ± 0.012 | 1.976 ± 0.014 | 0.303 ± 0.018 | 2 ± 0.057 |
| AAUGUC | -0.0892 ± 0.053 | 2.075 ± 0.01 | -0.24 ± 0.095 | 2.037 ± 0.0021 |
| CAGUUA | 0.197 ± 0.022 | 1.95 ± 0.02 | 0.573 ± 0.13 | 1.99 ± 0.038 |
| AAACGG | 0.359 ± 0.076 | 1.903 ± 0.013 | 0.384 ± 0.1 | 2.006 ± 0.016 |
| AGGCAC | 0.308 ± 0.083 | 2.0376 ± 0.0006 | 0.298 ± 0.11 | 2.02 ± 0.018 |
| AAACUG | 0.318 ± 0.15 | 1.933 ± 0.0021 | 0.151 ± 0.091 | 2 ± 0.037 |
| CCACAA | 0.496 ± 0.0082 | 1.969 ± 0.0044 | 0.422 ± 0.22 | 1.96 ± 0.016 |
| GUUUAG | 0.516 ± 0.048 | 1.965 ± 0.0083 | 0.495 ± 0.068 | 2.02 ± 0.033 |
| GCGAGC | 0.231 ± 0.076 | 2.014 ± 0.01 | 0.217 ± 0.14 | 2.036 ± 0.014 |

| Variant | FACS-Seq fitted mean (log10) [1] | normalized RNA/DNA level without ligand (log10) [2] | FACS-Seq fitted mean (log10) [3] | normalized RNA/DNA level with ligand (log10) [4] |
| --- | --- | --- | --- | --- |
| UCCGAG | -0.0266 ± 0.13 | 1.809 ± 0.011 | 0.131 ± 0.18 | 1.9932 ± 0.0011 |
| UGUCGU | 0.152 ± 0.076 | 1.95 ± 0.012 | 0.267 ± 0.017 | 2 ± 0.021 |
| ACAGGU | 0.385 ± 0.057 | 1.909 ± 0.019 | 0.437 ± 0.1 | 1.97 ± 0.052 |
| UGGUAU | 0.259 ± 0.18 | 1.926 ± 0.0022 | 0.274 ± 0.046 | 1.99 ± 0.015 |
| GGAAGA | 0.0463 ± 0.13 | 1.993 ± 0.0044 | 0.239 ± 0.2 | 2.04 ± 0.031 |
| GGGUCG | 0.531 ± 0.011 | 2.082 ± 0.0039 | 0.432 ± 0.17 | 2.06 ± 0.05 |
| UGGUGG | 0.464 ± 0.054 | 1.736 ± 0.014 | 0.742 ± 0.064 | 1.96 ± 0.031 |
| UGGUGU | 0.386 ± 0.1 | 1.933 ± 0.014 | 0.292 ± 0.034 | 2.01 ± 0.048 |
| UCAGCG | 0.14 ± 0.042 | 1.912 ± 0.0054 | 0.669 ± 0.098 | 2.03 ± 0.023 |
| GGGAGC | 0.342 ± 0.098 | 1.831 ± 0.0028 | 0.435 ± 0.029 | 1.96 ± 0.029 |
| UAGGAU | 0.37 ± 0.051 | 1.9235 ± 0.00039 | 0.358 ± 0.23 | 2 ± 0.052 |
| CACAAA | 0.458 ± 0.03 | 1.981 ± 0.014 | 0.462 ± 0.16 | 1.99 ± 0.033 |
| GCACAC | -0.179 ± 0.1 | 1.966 ± 0.0048 | -0.0397 ± 0.2 | 2 ± 0.037 |
| CAGCAU | 0.411 ± 0.13 | 1.96 ± 0.014 | 0.546 ± 0.21 | 2.01 ± 0.027 |
| UUUUGG | 0.169 ± 0.054 | 1.8812 ± 0.0015 | 0.473 ± 0.2 | 2.01 ± 0.028 |
| ACUAAG | 0.437 ± 0.1 | 1.924 ± 0.018 | 0.751 ± 0.14 | 2 ± 0.037 |
| ACUAAC | 0.18 ± 0.0049 | 2 ± 0.017 | 0.412 ± 0.046 | 2.01 ± 0.045 |
| UGAAUG | 0.0422 ± 0.017 | 1.758 ± 0.0067 | 0.2668 ± 0.0023 | 1.98 ± 0.021 |
